Molecular target: human eosinophil eotaxin receptor CC CKR3, stably expressed in AML14.3D10 cells (human) (UniProt P51677)
Experiment: cell-based or functional assay

Chain of human eosinophil eotaxin receptor CC CKR3, stably expressed in AML14.3D10 cells (human) (P51677 whole entry): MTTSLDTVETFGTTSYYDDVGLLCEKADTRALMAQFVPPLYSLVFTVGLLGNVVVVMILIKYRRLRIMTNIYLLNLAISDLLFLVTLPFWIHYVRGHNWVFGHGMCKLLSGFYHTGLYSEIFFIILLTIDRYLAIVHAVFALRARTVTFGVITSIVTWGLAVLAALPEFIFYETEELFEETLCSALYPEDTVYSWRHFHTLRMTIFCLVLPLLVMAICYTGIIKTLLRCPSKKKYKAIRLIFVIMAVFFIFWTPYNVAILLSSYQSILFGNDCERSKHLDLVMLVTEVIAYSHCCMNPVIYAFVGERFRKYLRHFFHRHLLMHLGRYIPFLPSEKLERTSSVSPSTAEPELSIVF

## IL-8 (from UniProt P10145 28-99) (ligand)
  Ca^2+-flux (intracellular Ca^2+ levels): > 1 µM

— patent publication US20020192214A1
